Results on 1 substance are retold here after article PMC2746561.

Test [1] concerns the target microtubules (polymerized tubulin) (UniProt Q6B856). Briefly: co-sedimentation.
The target in test [2] is full Ska1 complex (Rama1/Ska1/Ska2) (human) (UniProt Q96BD8). Briefly: SEC + other: sucrose gradient sedimentation.

full Ska1 complex (Rama1/Ska1/Ska2), sequence (Q96BD8 whole entry): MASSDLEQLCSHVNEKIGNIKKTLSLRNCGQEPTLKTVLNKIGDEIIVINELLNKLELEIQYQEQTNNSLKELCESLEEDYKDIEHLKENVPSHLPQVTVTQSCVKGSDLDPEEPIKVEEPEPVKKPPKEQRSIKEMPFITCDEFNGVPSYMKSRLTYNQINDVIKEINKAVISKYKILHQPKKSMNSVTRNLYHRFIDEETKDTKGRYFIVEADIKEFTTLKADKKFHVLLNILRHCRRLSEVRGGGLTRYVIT
full Ska1 complex (Rama1/Ska1/Ska2), sequence (Q8WVK7 whole entry): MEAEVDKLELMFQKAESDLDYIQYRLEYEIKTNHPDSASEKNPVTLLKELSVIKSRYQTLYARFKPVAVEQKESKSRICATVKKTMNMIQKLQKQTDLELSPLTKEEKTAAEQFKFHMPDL
full Ska1 complex (Rama1/Ska1/Ska2), sequence (Q8IX90 whole entry): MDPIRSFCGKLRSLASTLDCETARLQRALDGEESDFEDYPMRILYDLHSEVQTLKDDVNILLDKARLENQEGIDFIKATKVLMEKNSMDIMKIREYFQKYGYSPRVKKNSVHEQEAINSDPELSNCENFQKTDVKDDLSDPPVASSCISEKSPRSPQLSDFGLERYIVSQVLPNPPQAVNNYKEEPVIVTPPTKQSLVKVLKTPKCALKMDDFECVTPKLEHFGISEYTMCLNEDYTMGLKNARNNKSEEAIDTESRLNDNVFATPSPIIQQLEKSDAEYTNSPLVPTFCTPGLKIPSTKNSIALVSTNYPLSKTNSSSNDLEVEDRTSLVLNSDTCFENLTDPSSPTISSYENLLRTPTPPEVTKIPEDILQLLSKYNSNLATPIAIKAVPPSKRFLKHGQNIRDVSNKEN

“full Ska1 complex (Rama1/Ska1/Ska2) (from UniProt Q96BD8 1-255; Q8WVK7 1-121; Q8IX90 1-412)” returned a stoichiometry N (per tubulin dimer) in test [1] of 1. The stoichiometry N in test [2] came out at 2.

Broadly, the stoichiometry N is the number of molecules, sites or subunits per partner or assembly.
